These results are taken from paper PMC8899190 (2022).

Assay in all cases: BLI
On the technique in general: In BLI a coated tip is dipped into the sample, and binding shifts an interference pattern.

The target in test [1] is T1, Avi-tagged, biotinylated h14-3-3ß_(nY130) (human, UniProt P31946 1-246, 3-nitrotyrosine at 130; biotin on the N-terminal Avi tag).
T1 chain: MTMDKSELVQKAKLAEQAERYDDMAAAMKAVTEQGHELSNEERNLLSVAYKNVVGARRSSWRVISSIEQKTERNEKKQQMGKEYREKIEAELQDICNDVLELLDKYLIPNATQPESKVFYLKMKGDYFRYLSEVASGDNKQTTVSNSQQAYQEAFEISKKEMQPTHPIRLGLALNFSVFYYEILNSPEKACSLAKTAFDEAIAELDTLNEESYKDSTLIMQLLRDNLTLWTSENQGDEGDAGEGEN

Test [2] has as its target T2, Avi-tagged, biotinylated h14-3-3ß WT (human, UniProt P31946 1-239, biotin on the N-terminal Avi tag).
T2 chain: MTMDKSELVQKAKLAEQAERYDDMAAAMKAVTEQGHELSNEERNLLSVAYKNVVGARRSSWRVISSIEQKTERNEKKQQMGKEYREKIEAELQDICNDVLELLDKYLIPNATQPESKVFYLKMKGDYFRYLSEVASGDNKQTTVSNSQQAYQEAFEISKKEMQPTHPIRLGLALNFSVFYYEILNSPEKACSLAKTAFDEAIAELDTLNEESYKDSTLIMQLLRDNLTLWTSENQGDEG

The target in test [3] is T3, Avi-tagged, biotinylated h14-3-3ß_(nY213) (human, UniProt P31946 1-246, 3-nitrotyrosine at 213; biotin on the N-terminal Avi tag).
T3 chain: T1 chain

B1: Nb-G5 (C115S) (VHH)
VHH: QVQLQESGGGLVQPGGSLRLSCAASKNIANFDSMAWYRRSPGKERDLVARLYSDGGTNYEDSVKGRFNISTDIEKNTVYLQMNNLKLEDTARYYCRADLGLFDTSEFPGQGTQVTVSS
As usually defined, the Kd is the free concentration of one partner at which half of the binding sites on the other are occupied at equilibrium, for simple one-to-one binding. Low readings indicate tighter binding, high ones weaker binding. Take B1: the Kd was determined as 100 nM in test [1], 91 nM in test [2] and 104 nM in test [3].
